One series deals with T1, human KISS-receptor (Homo sapiens, UniProt Q969F8).
T1 construct: expressed in transfected cells; host or cells: CHO-k1 cells that also express mitochondrially targeted aequorin, Gα16 and an NFAT-luciferase reporter
Nature of the series: NFAT-regulated luciferase reporter gene assay in CHO-k1 cells, agonist activity. In kind it is cell-based. A general note: A reporter such as luciferase makes a cellular process visible.

The next series in a line: in vivo. The protocol: The pharmacokinetics of conjugate C8 were determined after administration of 40 nmol/kg IV in male and of 200 nmol/kg SC in female Sprague-Dawley rats.
Series [1] can be described thus: In vitro stability in human serum (LC/MS/MS).
Procedure: Test compound is added to 1.5 mL human serum in a 96-wells deepwell plate in a final concentration of 750 nM. The compound is mixed and immediately thereafter a 100 μl sample is harvested in a 96-wells 2D-tuberack (T=0 sample). The 2 D-tubes are closed with rubber tube caps and the sample plate is stored at −20° CF. in the freezer. The deepwell plate is put into an incubator which was set at humidified (95%) atmosphere at 5-7% CO2 and 37° C. for an incubation period of maximum 240 h. During this incubation period, samples of 100 μl are collected on various time intervals, dependent on the test compound used; time points 0, 1, 2, 3, 6, 24, 48, 72 h in case of Kisspeptides and 0, 3, 6, 24, 48, 72, 168, 240 h in case of kisspeptide-pentasaccharide conjugates. Sample plates are put on ice in case of sampling and stored at −20° C. until analysis by LC/MS/MS.
For LC-MS/MS analysis, the compounds are separated over an XTerra RP8 column and using a gradient mobile phase of ammonium acetate buffer and acetonitrile at a fixed column temperature. MS/MS detection is done with a triple quadrupole mass spectrometer and employing negative ion electrospray ionization. The mass spectrometer is set up to achieve a known degree of in source fragmentation, where the initially formed multiply charged negative ions lose one or more SO3 molecules. The most abundant of these secondary ions are then subjected to a common MS/MS experiment in which a single SO3 loss is monitored. The Q1 and Q3 mass filter settings for this MS/MS experiment have commonly been determined in method development. […] Internal standardization is accomplished by adding a different conjugate of approximately the same size to the bioanalytical samples.
The rate of compound loss is expressed as a half-life (plasma t^1/2). The t^1/2 for the test compound can be determined by plotting the natural logarithm (In) of the measured concentrations against time and fitting the line through all data points. The gradient of this line is the first order rate constant (k) for substrate disappearance and is determined by regression analysis. The rate constant is converted to a half-life according to the following equation: In vitro half-life(t^1/2)=−ln 2/k
For series [2] the following is noted: after clomiphene citrate treatment; cited from earlier work.
For series [3] the following is noted: cited from earlier work.
Where [4] appears, read: female, Sprague-Dawley, rat, plasma, sc, 0.2 umol/kg.
Where [5] appears, read: female, Sprague-Dawley, rat, plasma, sc, 200 nmol/kg.
Where [6] appears, read: female, Sprague-Dawley, rat, plasma, sc, 0.6 umol/kg.
[7] abbreviates: male, Sprague-Dawley, rat, plasma, iv, 40 nmol/kg.

SMILES strings stand for the structures. Where a name gives a salt, the structure may show the parent alone. Read-outs that look alike come from different tables or passages of the source.

T1 sequence (Q969F8 whole entry): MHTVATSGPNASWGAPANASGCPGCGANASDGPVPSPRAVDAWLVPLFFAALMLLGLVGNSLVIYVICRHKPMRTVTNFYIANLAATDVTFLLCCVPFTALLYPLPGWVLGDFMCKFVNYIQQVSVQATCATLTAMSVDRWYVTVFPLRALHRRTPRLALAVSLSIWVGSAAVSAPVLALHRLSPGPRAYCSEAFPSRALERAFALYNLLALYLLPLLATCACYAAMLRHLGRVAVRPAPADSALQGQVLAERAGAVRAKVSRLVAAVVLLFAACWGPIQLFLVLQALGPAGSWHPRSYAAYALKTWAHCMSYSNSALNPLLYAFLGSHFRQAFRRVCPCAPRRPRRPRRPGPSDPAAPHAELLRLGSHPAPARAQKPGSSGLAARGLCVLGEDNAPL
Procedure for human KISS-receptor: CHO-k1 cells were used that expressed the mitochondrially targeted aequorine and Gα16 (from Euroscreen, Brussels, Belgium), a Nuclear Factor of Activated T-cells-responsive element (NFAT) under the control of a promoter directing the expression of a firefly luciferase reporter gene (pNFAT-TALuc obtained from Clontech, Mountain View, Calif.), and the human GPR54-R Hygro(+)-hGPR54WT c4; MSD). These cells were cultured in Dulbecco's Modified Eagle Medium: Nutrient Mixture F-12 (DMEM/F12) (Invitrogen, Carlsbad, Calif.), supplemented with 10% (vol/vol) filtered bovine serum (Hyclone, Thermo Fisher Scientific, Waltham, Mass.), 100 U/ml penicillin G, 100 μg/ml streptomycin, 400 μg/ml Geneticin and 400 μg/ml Hygromycin (Invitrogen). […] Kisspeptin-10 was used as a standard. […] When the conjugates were tested in the presence of a final percentage of 20% human serum, 10 μl assay medium containing 60% human serum (Sigma-Aldrich, #H4522) was added to the wells. In the absence of human serum, 10 μl of assay medium was added. Cells were harvested and diluted to a concentration of 7.5E5 cells/ml in assay medium without 0.1% BSA. 10 μl of cell solution was added to the compound wells. After incubation for 4 hours in a humidified atmosphere at 5% CO2 and 37° C., the plate was left at room temperature for 30 minutes. Subsequently, 15 μl of Steadylite™ solution (PerkinElmer, Boston, Mass.) was added and the cells, protected from light, were allowed to lyse for 30 min at room temperature. Luminescence, indicated as relative luminescence units (RLU), was measured on an Envision Multilabel reader (PerkinElmer).

The AUC(0-inf) is total exposure, with the tail of the curve extrapolated. Higher therefore signals more exposure. For orientation: Cmax means the peak of the concentration-time curve. The term Tmax denotes the time from dosing to the highest level. The term bioavailability denotes the share of a dose that reaches the circulation, judged against a reference dose that is usually intravenous. Low values mean poor availability, high ones good availability. Broadly, the Vd is the apparent volume that relates the amount in the body to the concentration in plasma or blood. High values mean wide distribution into tissue, low ones little distribution into tissue. Broadly, the clearance is the volume of plasma or blood freed of the substance per unit of time. What is called half-life is how long it takes for the measured level to halve. Read a high half-life as slow decline. At human KISS-receptor (pEC50, absence of human serum), `CNC(=N)NCCC[C@H](NC(=O)[C@H](CC(C)C)NC(=O)NNC(=O)[C@H](Cc1ccccc1)NC(=O)[C@@H](NC(=O)[C@H](CC(N)=O)NC(=O)[C@H](Cc1c[nH]c2ccccc12)NC(=O)[C@H](CC(N)=O)NC(=O)[C@@H](Cc1ccc(O)cc1)NC(=O)CCCCn1cc(CCC(=O)NCCOCCOCCOCCO[C@H]2[C@H](OC)[C@@H](OC)[C@@H](O[C@H]3[C@H](OC)[C@@H](OC)[C@H](O[C@H]4[C@H](OS(=O)(=O)O)[C@@H](OS(=O)(=O)O)[C@@H](O[C@H]5[C@H](OC)[C@@H](OC)[C@H](O[C@H]6[C@H](OS(=O)(=O)O)[C@@H](OS(=O)(=O)O)[C@@H](OC)O[C@@H]6COS(=O)(=O)O)O[C@H]5C(=O)O)O[C@@H]4COS(=O)(=O)O)O[C@@H]3C(=O)O)O[C@@H]2COS(=O)(=O)O)nn1)C(C)O)C(=O)N[C@@H](Cc1ccccc1)C(N)=O` (stereo partly drawn) [Conjugate C8] gave an EC50 of 0.158 nM. The EC50 on human KISS-receptor (pEC50 serum, presence of 20% human serum) was 7.24 nM. In addition, the “AUCN(0-∞) IV” value in “in vivo” (40 nmol/kg IV, male rats) amounted to 60.4 nM·kg·h/µg. Further, in the series “in vivo” (200 nmol/kg SC, female rats), the “AUCN(0-∞) SC” value was determined as 56.5 nM·kg·h/µg and the F is reported as 94%. In “in vivo” (setting [4]), this molecule showed an AUC(0-inf) of 38.7 µM·h, a Cmax of 2310 nM and a level at time molar at 24 h of 490 nM. In “in vivo” (female, Sprague-Dawley, rat, plasma, sc, 0.2 umol/kg, Tmax, SC 0.2 μmol/kg, female rats), the Tmax is 2.7 h. For the same molecule, in the series “in vivo” (setting [5]), the Cmax turned out to be 2310 nM and the bioavailability was found to be 93.5%. The Tmax in “in vivo” (female, Sprague-Dawley, rat, plasma, sc, 200 nmol/kg, Tmax, 200 nmol/kg SC, female rats) came out at 2.7 h. The time of peak concentration (Tmax) in the series “in vivo” (female, Sprague-Dawley, rat, plasma, sc, 200 nmol/kg, tmax, following subcutaneous administration) lay in the range of 2.7 to 3.3 h. For the same molecule, in the series “in vivo” (setting [6]), the AUC(0-inf) was determined as 90.5 µM·h, the highest level (Cmax) was 5180 nM and the level at time molar at 24 h amounted to 1100 nM. For the same molecule, the Tmax in “in vivo” (female, Sprague-Dawley, rat, plasma, sc, 0.6 umol/kg, Tmax, SC 0.6 μmol/kg, female rats) came to 1.7 h. In the series “in vivo” (setting [7]), this molecule had a Vd of 0.067 L/kg, a clearance of 4.8 mL/h/kg and a half-life of 11.5 h. Also, the half-life at 750 nM in series [1] (human) was above 240 h.

As to `CCN(CC)CCOc1ccc(C(=C(Cl)c2ccccc2)c2ccccc2)cc1` [clomiphene citrate], in series [2], the ovulation rates was 60%-90% and the pregnancy rates is recorded as 20%-40%.

On to `CC(C)C[C@H](NC(=O)CNC(=O)[C@H](Cc1ccccc1)NC(=O)[C@H](CO)NC(=O)[C@H](CC(N)=O)NC(=O)[C@H](Cc1c[nH]c2ccccc12)NC(=O)[C@H](CC(N)=O)NC(=O)[C@@H](N)Cc1ccc(O)cc1)C(=O)N[C@@H](CCCNC(=N)N)C(=O)N[C@@H](Cc1ccccc1)C(N)=O` [Kiss-10, reference compound], for which, in series [3], the “half-life in human plasma” value was around 0.167 h. Also, the EC50 at human KISS-receptor (absence of human serum, read-out: pEC50 (converted)) is 1 nM; at human KISS-receptor (presence of 20% human serum, read-out: pEC50 serum (converted)), 1 nM. Besides, the “stability (in words)” value in series [1] (in words) was “not sufficiently stable”.

Source of the values: US9127038B2, “Kisspeptide-pentasaccharide conjugates” (Merck Sharp & Dohme Corp., priority 2011, dated 2015).
